Measured values from paper PMC5714209.

Molecular target: A3B 193 CTD (human) (UniProt Q9UH17)
Test: SEC

stoichiometry N: 2
Substance: A3B 193 CTD (from UniProt Q9UH17 193-382) (domain or fragment)
